Measured values published in paper PMC11197489, “RNA 5-methylcytosine regulates YBX2-dependent liquid-liquid phase separation”.

What was measured:
Conditions in all cases: protein: recombinant; tags: His6-SUMO removed by Ulp1
hYBX2 CSD W100F (ITC) = hYBX2 CSD W100F (ITC) (human, UniProt Q9Y2T7 85-177, I92T;Q93K;W100F); assay: ITC; ITC: 25 C, iTC200, buffer not stated (protein stock 10 mM Tris-HCl pH 8.0, 100 mM NaCl, 1 mM DTT); EMSA: 50 mM Tris-HCl pH 7.5, 100 mM NaCl, 0.4 mM EDTA, 0.1% NP-40, 1 mM DTT, 50% glycerol, BSA, on ice, 0.2% glutaraldehyde; pull-down: 100 mM NaCl, 10 mM Tris-HCl pH 7.6, 2 mM EDTA, 0.5% NP-40, 4 C
Chain of hYBX2 CSD W100F (ITC) (Q9Y2T7 85-177 I92T/Q93K/W100F): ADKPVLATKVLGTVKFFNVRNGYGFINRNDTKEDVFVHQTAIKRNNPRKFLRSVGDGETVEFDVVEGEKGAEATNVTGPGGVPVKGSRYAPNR

[1] = target: hYBX2 CSD I92T/Q93K (called wild-type in ITC) (human, UniProt Q9Y2T7 85-177, I92T;Q93K); assay: as above
Chain of hYBX2 CSD I92T/Q93K (called wild-type in ITC) (Q9Y2T7 85-177 I92T/Q93K): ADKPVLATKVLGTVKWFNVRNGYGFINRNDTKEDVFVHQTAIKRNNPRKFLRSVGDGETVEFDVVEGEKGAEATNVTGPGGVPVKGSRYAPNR

[2] = target: hYBX2 CSD W100F/Y173F (ITC) (human, UniProt Q9Y2T7 85-177, I92T;Q93K;W100F;Y173F); assay: as above
Chain of hYBX2 CSD W100F/Y173F (ITC) (Q9Y2T7 85-177 I92T/Q93K/W100F/Y173F): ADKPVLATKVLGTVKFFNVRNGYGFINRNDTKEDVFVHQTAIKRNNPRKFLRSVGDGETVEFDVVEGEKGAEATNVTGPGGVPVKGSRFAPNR

[3] = target: hYBX2 CSD 85-177 (crystal) (human, UniProt Q9Y2T7 85-177, I92T;Q93K); assay: crystal structure; ITC: 25 C, iTC200, buffer not stated (protein stock 10 mM Tris-HCl pH 8.0, 100 mM NaCl, 1 mM DTT); EMSA: 50 mM Tris-HCl pH 7.5, 100 mM NaCl, 0.4 mM EDTA, 0.1% NP-40, 1 mM DTT, 50% glycerol, BSA, on ice, 0.2% glutaraldehyde; pull-down: 100 mM NaCl, 10 mM Tris-HCl pH 7.6, 2 mM EDTA, 0.5% NP-40, 4 C
Chain of hYBX2 CSD 85-177 (crystal) (Q9Y2T7 85-177 I92T/Q93K): as the sequence (Q9Y2T7 85-177 I92T/Q93K) above

[4] = target: hYBX2 CSD 85-165 (crystal) (human, UniProt Q9Y2T7 85-165, I92T;Q93K); assay: as above
Chain of hYBX2 CSD 85-165 (crystal) (Q9Y2T7 85-165 I92T/Q93K): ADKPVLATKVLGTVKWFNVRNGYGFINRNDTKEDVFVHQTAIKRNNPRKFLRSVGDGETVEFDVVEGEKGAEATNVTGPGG

Binder	Kd (hYBX2 CSD W100F (ITC))	Kd [1]	Kd [2]	binding result [3]	binding result [4]
UCAUCUCU (ssRNA) [ITC unme-C RNA]	2590 ± 120 nM	710 ± 60 nM	7260 ± 240 nM	–	–
GUCUC (ssRNA, m5C at positions 3 and 5) [GU(m5C)U(m5C)]	–	–	–	binds	–
UCAUCUU (ssRNA, m5C at position 5) [UCAU(m5C)UU]	–	–	–	binds	–
UCAUCUCU (ssRNA, m5C at position 5) [ITC m5C RNA UCAU(m5C)UCU]	2340 ± 90 nM	220 ± 20 nM	6330 ± 520 nM	–	–
UCAUCU (ssRNA, m5C at position 5) [UCAU(m5C)U]	–	–	–	binds	binds
